Assay results: publication PMC9365700, “Architecture and self-assembly of the jumbo bacteriophage nuclear shell” (Nature, 2022)
Where “and” joins values, the source holds several entries; their conditions need not be identical. Equal entries are not always repeated.

B1: Goslar chimallin (gp189), full length, recombinant (natural protein, bacteriophage Goslar, UniProt A0A482GDX1 1-631, looked up)
chain: MGLDVRNNGNDNVEIRAAETRTAQRADEALETAADFAGQPKVTHTMRTINRTLSRRISRNTGSEQVLNLRRLMEKYLEDTRFKDDFIFVAVDPNQYSVPYPTLVVMSGAKVGDHNHFFGYVLPLVAGLAPLPRREEQGPHGNILVPRTWVDNLNGTFINEVMAAMYAAIGGKSNGTARIAGLAVVTNEITAESAHLATTLLSAADNAIQTAIEIRLGDKLGLPQFNLGMMASDQPISSVQYNTSGMQDSDIVGNPVRSDITVTISNRIRQAMSDYDSQQRLVATTGYIDLTYSPQNPTFNQGPVLVNGYPVPPTVQYQPRYVMTSAYPLELDAFTPNTFVLGLIGTIATLNSGMAWAQSLISNAARGIGPHNPGALAMVLDPEVTAPLDLSTQTNEQIYKFLQQVLYPSLLISIDVPEEGEYSWLLRMIPAAEKIYTGKVEGEVREISEGYKALYRAFDDVTLGCFSKKYQYGLPLVYATGNRIPLGHYNHQDGHRHDIRDMDDLYMMNITNPDTVEAWEDSFDRTDMTMSQRVVARHEIIDRVLSGSWEQTGWAMRYDFDPLALQALIEAAADAGFTIRPENIQHLAGTAVRGNMAARARGLGNISGNIYARSDRPNVGVNNMGGAFNLF
notes: Chimallin (gp189) of E. coli jumbo bacteriophage Goslar, 631 amino acids, NCBI YP_009820873.1; Cloned in UC Berkeley Macrolab vector 2-BT (Addgene #29666) with a TEV-cleavable His6 tag; tag removed before SEC; not shown: His6, N-terminal, cleaved
B2: 201phi2-1 chimallin (gp105), full length, recombinant (natural protein, bacteriophage 201phi2-1, UniProt B3FIW8 1-631, looked up)
chain: MIRDTATNTTQTQAAPQQAPAQQFTQAPQEKPMQSTQSQPTPSYAGTGGINSQFTRSGNVQGGDARASEALTVFTRLKEQAVAQQDLADDFSILRFDRDQHQVGWSSLVIAKQISLNGQPVIAVRPLILPNNSIELPKRKTNIVNGMQTDVIESDIDVGTVFSAQYFNRLSTYVQNTLGKPGAKVVLAGPFPIPADLVLKDSELQLRNLLIKSVNACDDILALHSGERPFTIAGLKGQQGETLAAKVDIRTQPLHDTVGNPIRADIVVTTQRVRRNGQQENEFYETDVKLNQVAMFTNLERTPQAQAQTLFPNQQQVATPAPWVASVVITDVRNADGIQANTPEMYWFALSNAFRSTHGHAWARPFLPMTGVAKDMKDIGALGWMSALRNRIDTKAANFDDAQFGQLMLSQVQPNPVFQIDLNRMGETAQMDSLQLDAAGGPNAQKAAATIIRQINNLGGGGFERFFDHTTQPILERTGQVIDLGNWFDGDEKRDRRDLDNLAALNAAEGNENEFWGFYGAQLNPNLHPDLRNRQSRNYDRQYLGSTVTYTGKAERCTYNAKFIEALDRYLAEAGLQITMDNTSVLNSGQRFMGNSVIGNNMVSGQAQVHSAYAGTQGFNTQYQTGPSSFY
notes: Cloned in UC Berkeley Macrolab vector 2-BT (Addgene #29666) with a TEV-cleavable His6 tag; tag removed before SEC; also called ChmA; FL; not shown: His6, N-terminal, cleaved

Target: the molecule itself
Assay: cryo-EM structure; single-particle analysis of the defined assemblies from SEC with localized reconstruction (O, C4, C1); 201phi2-1 about 4 µM monomer, Goslar about 33 µM monomer

| Protein | stoichiometry N |
| --- | --- |
| B1 | 24 protomers |
| B2 | 24 protomers and 40 protomers |
